The results in this text go back to patent EP4554620A1.

The target in assay [1] is Human TIGIT residues 23-128 with C-terminal HIS tag (human) (UniProt Q495A1). Kind of assay: SPR, amine coupling, pH 7.4 against pH 6.0. For orientation: In SPR one partner is held on a chip, and binding of the other changes the refractive index at the surface.
The target in assay [2] is Human TIGIT residues 23-128 ASP63A mutant (human) (UniProt Q495A1). Kind of assay: SPR, capture immobilization, TIGIT alanine mutants.
Sequence of Human TIGIT residues 23-128 ASP63A mutant (human) (Q495A1 other isoform, or with tags, fused parts or gaps mutant, form in doubt): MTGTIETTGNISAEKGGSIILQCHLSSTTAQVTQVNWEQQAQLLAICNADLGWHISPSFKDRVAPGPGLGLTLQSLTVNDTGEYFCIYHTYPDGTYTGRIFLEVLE
For assay [3], the target named is Human TIGIT residues 23-128 HIS76A mutant (human) (UniProt Q495A1). Kind of assay: SPR, capture immobilization, TIGIT alanine mutants.
Sequence of Human TIGIT residues 23-128 HIS76A mutant (human) (Q495A1 other isoform, or with tags, fused parts or gaps mutant, form in doubt): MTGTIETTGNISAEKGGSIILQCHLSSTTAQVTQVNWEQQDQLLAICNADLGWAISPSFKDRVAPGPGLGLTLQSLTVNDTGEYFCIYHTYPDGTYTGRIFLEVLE
The target in assay [4] is Human TIGIT residues 23-128 ILE68A mutant (human) (UniProt Q495A1). Kind of assay: SPR, capture immobilization, TIGIT alanine mutants.
Sequence of Human TIGIT residues 23-128 ILE68A mutant (human) (Q495A1 other isoform, or with tags, fused parts or gaps mutant, form in doubt): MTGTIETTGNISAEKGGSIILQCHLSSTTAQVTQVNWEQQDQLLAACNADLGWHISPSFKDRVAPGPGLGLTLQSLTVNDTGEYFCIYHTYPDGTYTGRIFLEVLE
Assay [5] concerns the target Human TIGIT residues 23-128 LEU73A mutant (human) (UniProt Q495A1). Kind of assay: SPR, capture immobilization, TIGIT alanine mutants.
The target in assay [6] is Human TIGIT residues 23-128 LEU73A/HIS76A double mutant (human) (UniProt Q495A1). Kind of assay: SPR, capture immobilization, TIGIT alanine mutants.
Sequence of Human TIGIT residues 23-128 LEU73A/HIS76A double mutant (human) (Q495A1 other isoform, or with tags, fused parts or gaps mutant, form in doubt): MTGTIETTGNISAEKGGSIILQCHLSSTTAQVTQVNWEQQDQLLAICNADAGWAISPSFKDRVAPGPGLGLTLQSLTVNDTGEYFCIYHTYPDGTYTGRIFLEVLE
The target in assay [7] is Human TIGIT residues 23-128 PRO79A mutant (human) (UniProt Q495A1). Kind of assay: SPR, capture immobilization, TIGIT alanine mutants.
Sequence of Human TIGIT residues 23-128 PRO79A mutant (human) (Q495A1 other isoform, or with tags, fused parts or gaps mutant, form in doubt): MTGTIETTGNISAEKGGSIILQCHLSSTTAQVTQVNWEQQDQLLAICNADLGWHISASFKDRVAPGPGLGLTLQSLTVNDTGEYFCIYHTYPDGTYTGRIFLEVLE

Sequence of Human TIGIT residues 23-128 LEU73A mutant (human) (Q495A1 other isoform, or with tags, fused parts or gaps mutant, form in doubt): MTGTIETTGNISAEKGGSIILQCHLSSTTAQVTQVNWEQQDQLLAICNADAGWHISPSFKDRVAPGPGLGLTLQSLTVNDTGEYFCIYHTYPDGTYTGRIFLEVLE
Sequence of Human TIGIT residues 23-128 with C-terminal HIS tag (human) (Q495A1 23-128, form in doubt): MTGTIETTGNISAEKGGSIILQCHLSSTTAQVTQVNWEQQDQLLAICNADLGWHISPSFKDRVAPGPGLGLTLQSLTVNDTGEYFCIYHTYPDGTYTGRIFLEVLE

In turn, A1217 (Ociperlimab) (antibody) displayed a fold increase of binding affinity (KD) from pH 7.4 to pH 6.0 in assay [1] of 17 fold. Further, the fold decrease in binding affinity against WT TIGIT in assay [2] is 7 fold; in assay [4], 30 fold. Further, the fold reduction of binding against wild-type TIGIT in assay [3], in assay [4] and in assay [6] was more than 10 fold in each case. Besides, the fold reduction in binding affinity against WT TIGIT in assay [5] came to 7 fold. Also, the fold lower binding affinity against WT TIGIT in assay [7] worked out at 3 fold.
